One block for each binder: values may come before it.
How the values were obtained:
[1] = target: T1, human IL-6 (human, UniProt P05231 30-212); experiment: cell-based or functional assay
[2] = target: T1, human IL-6; experiment: cell-based or functional assay; remark: listed apart in the source
[3] = target: T2, 3×FLAG-IL-6 (human); experiment: SPR, 3×FLAG-IL-6 captured by anti-FLAG M2 on protein G, scFv as analyte (1-100 nM)
T2 construct: it may hold the pre-pro-trypsin leader
Procedure: Equilibrium constants for scFvs were determined as previously described; however, the protocol was modified so that an epitope tagged IL-6 was captured on the chip surface and the dissociation of anti-IL-6 scFvs from IL-6 was monitored. Briefly, anti-FLAG® M2 antibody (200472, Agilent Technologies, Santa Clara, Calif.) was bound to Protein G, and then 3×FLAG-IL-6 was captured by the anti-FLAG antibody. The anti-IL-6 scFvs were assayed over a range of concentrations between 1 and 100 nM.
Anti IL-6 scFvs, humanized using the one step method, retained IL-6 neutralization activity when expressed in mammalian cells, as shown for 13A8 (FIG. 11A and FIG. 11B), 28D2 and 9C8 v3-1 (FIG. 11C).

[4] = target: T1, human IL-6; experiment: cell-based or functional assay; remark: listed apart in the source
[5] = target: T2, 3×FLAG-IL-6; experiment: SPR, 3×FLAG-IL-6 captured by anti-FLAG M2 on protein G, scFv as analyte
[6] = target: T2, 3×FLAG-IL-6; experiment: SPR, 3×FLAG-IL-6 captured by anti-FLAG M2 on protein G, scFv as analyte (1-100 nM); remark: listed apart in the source

T2 sequence (chain, as listed by the source limits assumed): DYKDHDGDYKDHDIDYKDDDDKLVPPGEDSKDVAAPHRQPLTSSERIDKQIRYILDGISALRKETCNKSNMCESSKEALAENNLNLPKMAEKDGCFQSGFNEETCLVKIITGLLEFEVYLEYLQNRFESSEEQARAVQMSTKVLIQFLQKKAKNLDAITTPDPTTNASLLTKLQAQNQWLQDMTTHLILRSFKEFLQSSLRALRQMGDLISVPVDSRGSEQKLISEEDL

Kd [5]: 0.0674 nM
koff [5]: 7.1e-05 s⁻¹
kon [5]: 1.05e+06 M⁻¹ s⁻¹
Kd [6]: 0.052 nM
koff [6]: 7.6e-05 s⁻¹
kon [6]: 1.45e+06 M⁻¹ s⁻¹
B5: 28D2-C Aha (scFv)
scFv: MAHHHHHHPPPPAAADIQLTQSPSFLSASVGDRVTITCQASEDLFSSLAWYQQKPGKAPKLLIYSASTLASGVPSRFSGSGSGTDFTLTISSLQPEDFATYYCLGLYYYLTPDPIYGFGGGTKVEIKGGGGSGGGGSGGGGSGGGGSEVQLVESGGGLVQPGGSLRLSCTVSGLSLSKNAIAWVRQAPGKGLEWVGIIYAGGATTYASWAKGRFTISRDNSKNTLYLQLNSLRAEDTAVYYCAREYAGDSYYTGYTQLDLWGQGTLVTVSSGM
modifications: azidohomoalanine (Aha) in place of the single Met, at the C terminus

EC50, inhibition of IL-6 induced B9 cell proliferation [2]: 0.043 ng/mL
Kd [3]: 0.109 nM
koff [3]: 0.0001 s⁻¹
kon [3]: 918000 M⁻¹ s⁻¹
Kd [6]: 0.109 nM
koff [6]: 0.0001 s⁻¹
kon [6]: 918000 M⁻¹ s⁻¹
B6: 28D2 humanized scFv (mammalian expressed) (scFv)
scFv: DIQLTQSPSFLSASVGDRVTITCQASEDLFSSLAWYQQKPGKAPKLLIYSASTLASGVPSRFSGSGSGTDFTLTISSLQPEDFATYYCLGLYYYLTPDPIYGFGGGTKVEIKGGGGSGGGGSGGGGSGGGGSEVQLVESGGGLVQPGGSLRLSCTVSGLSLSKNAIAWVRQAPGKGLEWVGIIYAGGATTYASWAKGRFTISRDNSKNTLYLQMNSLRAEDTAVYYCAREYAGDSYYTGYTQLDLWGQGTLVTVSSGPPPPHHHHHH
notes: also called 28D2 scFv

The next lines start with the binder.

B1: 13A8 humanized scFv (mammalian expressed) (scFv)
scFv: DIQLTQSPSFLSASVGDRVTITCQASQSISNELSWYQQKPGKAPKLLIYRASTLTSGVPSRFSGSGSGTEFTLTISSLQPEDFATYYCQQGYNSNDVDNVFGGGTKVEIKGGGGSGGGGSGGGGSGGGGSEVQLVESGGGLVQPGGSLRLSCTVSGIDLSSYDMSWVRQAPGKGLEWVGYIYTDSSTWYANWAKGRFTISRDNSKNTLYLQMNSLRAEDTAVYYCARGSTDYAFDTRLDLWGQGTLVTVSSGPPPPHHHHHH
notes: also called humanized scFv 13A8; mammalian 13A8 scFv
EC50, neutralization of IL-6 [1]: 0.059 ng/mL
EC50, inhibition of IL-6 induced B9 cell proliferation [2]: 0.064 ng/mL
Kd [3]: 0.0982 nM
koff [3]: 8.64e-05 s⁻¹
kon [3]: 876000 M⁻¹ s⁻¹

B2: 13A8c-PEG20 (scFv)
scFv: DIQLTQSPSFLSASVGDRVTITCQASQSISNELSWYQQKPGKAPKLLIYRASTLTSGVPSRFSGSGSGTEFTLTISSLQPEDFATYYCQQGYNSNDVDNVFGGGTKVEIKGGGGSGGGGSGGGGSGGGGSEVQLVESGGGLVQPGGSLRLSCTVSGIDLSSYDLSWVRQAPGKGLEWVGYIYTDSSTWYANWAKGRFTISRDNSKNTLYLQLNSLRAEDTAVYYCARGSTDYAFDTRLDLWGQGTLVTVSS
modifications: C-terminal azidohomoalanine (Aha) conjugated to 20 kDa linear PEG bis-alkyne
EC50 (pg/mL) of the folded scFv-PEG [4]: 93 pg/mL

B3: 13A8L-PEG20 (scFv)
scFv: B2 scFv
modifications: azidohomoalanine (Aha) in the linker (13A8L) conjugated to 20 kDa linear PEG bis-alkyne
EC50 (pg/mL) of the folded scFv-PEG [4]: 278 pg/mL

B4: 13A8n-PEG20 (scFv)
scFv: B2 scFv
modifications: N-terminal azidohomoalanine (Aha) conjugated to 20 kDa linear PEG bis-alkyne
EC50 (pg/mL) of the folded scFv-PEG [4]: 1980 pg/mL

Source: US20160194391A1 (AstraZeneca / MedImmune, published 2016)
